Results on 1 molecule are retold here after patent publication US20100260668A1 (published 2010).

In the assay the target is T1, CD40/FC (CD40 ECD/FC chimera-His tag) (UniProt P25942 21-193, limits assumed).
T1 construct: extracellular domain; Bought reagent
Description: Direct Bind ELISA, antigen on plate; N-terminal VD.
Description: Enzyme Linked Immunosorbent Assays to screen for antibodies that bind a desired target antigen were performed as follows. […] Plates were washed four times with PBS containing 0.02% Tween 20. Plates were blocked by the addition of 300 μL/well blocking solution (non-fat dry milk powder, various retail suppliers, diluted to 2% in PBS) for ½ hour at room temperature. Plates were washed four times after blocking with PBS containing 0.02% Tween 20.
Alternatively, one hundred microliters per well of 10 μg/ml of Histidine (His) tagged desired target antigen (R&D Systems, Minneapolis, Minn.) was added to ELISA plates coated with monoclonal mouse anti-polyHistidine antibody as described above and incubated for 1 hour at room temperature. Wells were washed four times with PBS containing 0.02% Tween 20.
One hundred microliters of antibody or DVD-Ig preparations diluted in blocking solution as described above was added to the desired target antigen plate or desired target antigen/FC fusion plate or the anti-polyHistidine antibody/His tagged desired target antigen plate prepared as described above and incubated for 1 hour at room temperature. Wells are washed four times with PBS containing 0.02% Tween 20.

T1 sequence (P25942 21-193 limits assumed, change not shown): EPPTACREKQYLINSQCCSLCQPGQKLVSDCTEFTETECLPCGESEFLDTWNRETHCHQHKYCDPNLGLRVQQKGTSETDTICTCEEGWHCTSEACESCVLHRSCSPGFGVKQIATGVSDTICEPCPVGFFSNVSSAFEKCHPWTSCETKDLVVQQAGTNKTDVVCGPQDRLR

B1: DVD010 (CD-40 and CD-20 DVD-Ig) (bispecific antibody, IgG1)
VH: QVQLVESGGGVVQPGRSLRLSCAASGFTFSSYGMHWVRQAPGKGLEWVAVISYEESNRYHADSVKGRFTISRDNSKITLYLQMNSLRTEDTAVYYCARDGGIAAPGPDYWGQGTLVTVSSASTKGPQVQLQQPGAELVKPGASVKMSCKASGYTFTSYNMHWVKQTPGRGLEWIGAIYPGNGDTSYNQKFKGKATLTADKSSSTAYMQLSSLTSEDSAVYYCARSTYYGGDWYFNVWGAGTTVTVSA
VL: DIVMTQSPLSLTVTPGEPASISCRSSQSLLYSNGYNYLDWYLQKPGQSPQVLISLGSNRASGVPDRFSGSGSGTDFTLKISRVEAEDVGVYYCMQARQTPFTFGPGTKVDIRRTVAAPQIVLSQSPAILSPSPGEKVTMTCRASSSVSYIHWFQQKPGSSPKPWIYATSNLASGVPVRFSGSGSGTSYSLTISRVEAEDAATYYCQQWTSNPPTFGGGTKLEIKR
notes: Outer AB009, inner AB001; HC vector V1 (wild-type hIgG1 constant), LC vector V2 (kappa constant); also called DVD010H; DVD010L
Turning to B1, the EC50 (in general, the concentration giving half of the maximal effect) worked out at 0.82 nM.
